Reference: PMC13486833, “Engineered HMGB1 construct with tandem Box B domains promotes tissue regeneration without potential for inflammation” (iScience, 2026)

Target: T1, RAGE-Fc chimera protein (UniProt Q15109 23-342)
T1 construct: RAGE, recombinant Fc chimera BioTechne Cat# 1145-RG; As far as I recall the catalogue product is the human RAGE extracellular domain fused to human IgG1 Fc; source: bought: BioTechne
Assay: BLI; RAGE-Fc (15 μg/mL) immobilised on anti-IgG (AHC) biosensors; HMGB1 constructs 0–25 μM in solution; 200 s association/dissociation
Settings: both partners purified

T1 sequence (Q15109 23-342, change not shown): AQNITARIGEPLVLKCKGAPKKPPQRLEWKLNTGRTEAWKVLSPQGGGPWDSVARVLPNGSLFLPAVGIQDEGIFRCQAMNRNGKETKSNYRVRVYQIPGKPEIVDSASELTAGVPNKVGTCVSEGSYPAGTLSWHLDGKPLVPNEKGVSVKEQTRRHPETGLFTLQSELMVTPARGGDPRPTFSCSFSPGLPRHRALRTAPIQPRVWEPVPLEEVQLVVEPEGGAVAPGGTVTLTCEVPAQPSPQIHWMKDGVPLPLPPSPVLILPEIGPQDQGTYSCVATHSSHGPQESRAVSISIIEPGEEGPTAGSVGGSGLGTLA

B1: dBB12L (FR-HMGB1 89–174::89–174) (other)
chain: KDPNAPKRPPSAFFLFCSEYRPKIKGEHPGLSIGDVAKKLGEMWNNTAADDKQPYEKKAAKLKEKYEKDIAAYRAKGKPDAAKKGVKDPNAPKRPPSAFFLFCSEYRPKIKGEHPGLSIGDVAKKLGEMWNNTAADDKQPYEKKAAKLKEKYEKDIAAYRAKGKPDAAKKGV
modifications: fully reduced Cys105 (printed numbering) in both copies; printed n = entry n+1 (C22/C44/C105 = C23/C45/C106 in P09429); direct tandem fusion, with native flanks acting as the linker
  Kd: 5.5 µM
  koff: 0.206 s⁻¹
